Test results published in patent US9664683B2, “Profiling of signal pathway proteins to determine therapeutic efficacy” (Nestec S.A., priority 2011, dated 2017).

Columns and labels:
PI3K complex = test: Proximity (CEER) assay detecting PI3K complexes in T47D cells; assay type: cell-based, human; conditions: T47D cells treated with heregulin (HRG), compared to non-treated cells; FIG. 4C
Excerpt: FIG. 4C illustrates the detection of activated PI3K complexes in T47D cells (human ductal breast epithelial tumor cell line) treated with heregulin (HRG), compared to non-treated cells. In some embodiments, the detection of PI3K complexes will also correlate with the detection of activated (e.g., phosphorylated) PI3K. […]

[1] = test system: HER2 heterodimers and PI3K; test: Proximity based dimer/complex assay in MCF7 cells; assay type: cell-based, human; conditions: response to ligand, FIG. 20
Excerpt: FIG. 1A-C show one embodiment of the foregoing proximity assay for detection of dimerization of receptor tyrosine kinases. […] A first detection antibody 115 is then used to bind to a different portion (e.g., epitope) on HER2. A second detection 120 antibody is thereafter used to bind to the dimerized second receptor tyrosine 1kinase e.g., HER3 125. The first detection antibody comprises one or a plurality of first activation state-independent antibodies specific for one member of the dimer, whereas a second detection antibody or a plurality of second detection antibodies is specific for the other member of the dimer. The first detection antibody is labeled with a facilitating moiety e.g., glucose oxidase (GO) and the second detection antibody is labeled with a first member of a signal amplification pair e.g., horseradish peroxidase (HRP). The facilitating moiety generates an oxidizing agent e.g., hydrogen peroxide, which channels to and reacts with the first member of the signal amplification pair. Thereafter, the plurality of detectable captured analytes are incubated with a second member of the signal amplification pair e.g., tyramide or tyramide biotin to generate an amplified signal, which is then detected. […]

PI3K pathway = test: CEER-FNA pathway profiling of breast cancer tumor samples exposed to anti-cancer therapy; assay type: cell-based; conditions: breast cancer tumor samples exposed to AKT inhibitor and/or Lapatinib; FIG. 17
Excerpt: The breast cancer tumor samples were exposed to AKT inhibitor and/or Lapatinib (a tyrosine kinase inhibitor). This example illustrates that cancer cells can adapt to therapeutic pressure due to drug therapy. […] FIG. 17 illustrates CEER-FNA analysis of biomarkers in pathway profiling of breast cancer cell samples after treatment with an AKT inhibitor, Lapatinib (a tyrosine kinase inhibitor) or combination therapy.

Molecule | detection of PI3K complexes (PI3K complex) | activation of HER2 heterodimers and PI3K [1] | levels of phosphorylated pathway proteins after treatment (PI3K pathway)
heregulin [HRG] | PI3K complexes were detected | activation of HER2 heterodimers and PI3K | –
CS(=O)(=O)CCNCc1ccc(-c2ccc3ncnc(Nc4ccc(OCc5cccc(F)c5)c(Cl)c4)c3c2)o1 [Lapatinib, lapatinib] | – | – | Higher levels of phosphorylated PI3K, AKT, ERK
EGF: pathway activating ligand used to stimulate MCF7 cells | – | activation of HER2 heterodimers and PI3K | –
